Experimental data published in paper PMC5727457 (Nucleic Acids Research, 2017).

T1: Psy3 (S. cerevisiae, UniProt Q12318 1-242)
T1 sequence: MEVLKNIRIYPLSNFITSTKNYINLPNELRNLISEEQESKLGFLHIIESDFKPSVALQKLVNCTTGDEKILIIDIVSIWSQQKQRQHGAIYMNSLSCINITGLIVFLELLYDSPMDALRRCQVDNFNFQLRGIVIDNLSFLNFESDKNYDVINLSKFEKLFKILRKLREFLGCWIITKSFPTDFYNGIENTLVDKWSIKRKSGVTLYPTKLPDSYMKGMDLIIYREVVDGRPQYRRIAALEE

T2: His6-tagged Psy3Δ(1–7)-Csm2 heterodimer (S. cerevisiae, UniProt Q12318;P40465)
T2 sequence 1: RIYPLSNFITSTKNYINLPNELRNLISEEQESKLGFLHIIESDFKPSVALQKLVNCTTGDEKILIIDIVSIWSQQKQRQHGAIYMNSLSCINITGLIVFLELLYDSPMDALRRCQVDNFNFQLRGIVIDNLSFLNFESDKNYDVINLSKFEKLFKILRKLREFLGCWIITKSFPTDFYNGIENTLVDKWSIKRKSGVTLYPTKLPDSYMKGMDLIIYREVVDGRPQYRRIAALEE
T2 sequence 2: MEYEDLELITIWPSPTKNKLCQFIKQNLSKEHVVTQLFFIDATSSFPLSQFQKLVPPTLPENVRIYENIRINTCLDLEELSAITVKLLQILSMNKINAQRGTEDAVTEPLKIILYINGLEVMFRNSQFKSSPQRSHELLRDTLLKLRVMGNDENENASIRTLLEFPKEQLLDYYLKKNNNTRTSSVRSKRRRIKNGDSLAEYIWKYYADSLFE

T3: His6-tagged Psy3-Csm2 heterodimer (S. cerevisiae, UniProt Q12318;P40465)
T3 sequence 1: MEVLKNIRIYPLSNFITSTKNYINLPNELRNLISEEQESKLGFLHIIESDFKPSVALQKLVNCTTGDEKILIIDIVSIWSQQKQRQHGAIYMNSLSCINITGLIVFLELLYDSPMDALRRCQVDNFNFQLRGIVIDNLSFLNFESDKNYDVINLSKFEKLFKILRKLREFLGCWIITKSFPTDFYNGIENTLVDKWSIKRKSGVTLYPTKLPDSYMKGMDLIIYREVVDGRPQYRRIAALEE
T3 sequence 2: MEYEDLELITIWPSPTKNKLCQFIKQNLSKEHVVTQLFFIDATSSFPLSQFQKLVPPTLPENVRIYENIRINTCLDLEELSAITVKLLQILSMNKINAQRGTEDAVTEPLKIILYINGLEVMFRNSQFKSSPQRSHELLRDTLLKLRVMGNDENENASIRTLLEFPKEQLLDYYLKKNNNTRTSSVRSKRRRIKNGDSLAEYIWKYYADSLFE

B1: His6-Shu2 (natural protein)
chain: MSKDVIEYSKLFAKLVNTNDDTKLDDTIASFLYYMFPRELFIRAISLLESSDMFIYILDRVHNKEGNEHTSLIDVLVDEFYKGSSNSLLEYRLIVKDTNDGAPPILVDIAHWFCSCEEFCKYFHEALEKTDEKEELHDVLINEVDDHLQFSDDRFAQLDPHSLSKQWYFKFDKVCCSHLLAFSILLRSSINVLKFFTVNSNKVFVIAIDNIDEWLNLHINIVE

Key:
His6-Shu2 = molecular target: B1; test: pull-down
Psy3 = molecular target: T1, Psy3; test: crystal structure
[1] = molecular target: T2, His6-tagged Psy3Δ(1–7)-Csm2 heterodimer; test: pull-down
[2] = molecular target: T3, His6-tagged Psy3-Csm2 heterodimer; test: pull-down

Row | binding result (Psy3) | binding result [2] | Binder | further results
1 | binds |  | Shu1 (natural protein) MQFEERLQQLVESDWSLDQSSPNVLVIVLGDTARKYVELGGLKEHVTTNTVAGHVASRERVSVVFLGRVKYLYMYLTRMQAQANGPQYSNVLVYGLWDLTATQDGPQQLRLLSLVLRQCLSLPSKVEFYPEPPSSSVPARLLRFWDHIIR | binding result (His6-Shu2): binds
2 |  | binds | Shu2-Shu1 heterodimer (His6 tag removed) (complex) chain 1: MSKDVIEYSKLFAKLVNTNDDTKLDDTIASFLYYMFPRELFIRAISLLESSDMFIYILDRVHNKEGNEHTSLIDVLVDEFYKGSSNSLLEYRLIVKDTNDGAPPILVDIAHWFCSCEEFCKYFHEALEKTDEKEELHDVLINEVDDHLQFSDDRFAQLDPHSLSKQWYFKFDKVCCSHLLAFSILLRSSINVLKFFTVNSNKVFVIAIDNIDEWLNLHINIVE chain 2: MQFEERLQQLVESDWSLDQSSPNVLVIVLGDTARKYVELGGLKEHVTTNTVAGHVASRERVSVVFLGRVKYLYMYLTRMQAQANGPQYSNVLVYGLWDLTATQDGPQQLRLLSLVLRQCLSLPSKVEFYPEPPSSSVPARLLRFWDHIIR | binding result [1]: binds
3 |  | binds | Shu2-Shu1(V51A) heterodimer (His6 tag removed) (complex) chain 1: MSKDVIEYSKLFAKLVNTNDDTKLDDTIASFLYYMFPRELFIRAISLLESSDMFIYILDRVHNKEGNEHTSLIDVLVDEFYKGSSNSLLEYRLIVKDTNDGAPPILVDIAHWFCSCEEFCKYFHEALEKTDEKEELHDVLINEVDDHLQFSDDRFAQLDPHSLSKQWYFKFDKVCCSHLLAFSILLRSSINVLKFFTVNSNKVFVIAIDNIDEWLNLHINIVE chain 2: MQFEERLQQLVESDWSLDQSSPNVLVIVLGDTARKYVELGGLKEHVTTNTAAGHVASRERVSVVFLGRVKYLYMYLTRMQAQANGPQYSNVLVYGLWDLTATQDGPQQLRLLSLVLRQCLSLPSKVEFYPEPPSSSVPARLLRFWDHIIR | 
4 |  | binds | Shu2-Shu1(V51L) heterodimer (His6 tag removed) (complex) chain 1: MSKDVIEYSKLFAKLVNTNDDTKLDDTIASFLYYMFPRELFIRAISLLESSDMFIYILDRVHNKEGNEHTSLIDVLVDEFYKGSSNSLLEYRLIVKDTNDGAPPILVDIAHWFCSCEEFCKYFHEALEKTDEKEELHDVLINEVDDHLQFSDDRFAQLDPHSLSKQWYFKFDKVCCSHLLAFSILLRSSINVLKFFTVNSNKVFVIAIDNIDEWLNLHINIVE chain 2: MQFEERLQQLVESDWSLDQSSPNVLVIVLGDTARKYVELGGLKEHVTTNTLAGHVASRERVSVVFLGRVKYLYMYLTRMQAQANGPQYSNVLVYGLWDLTATQDGPQQLRLLSLVLRQCLSLPSKVEFYPEPPSSSVPARLLRFWDHIIR | 
5 | binds |  | Csm2 (natural protein) MEYEDLELITIWPSPTKNKLCQFIKQNLSKEHVVTQLFFIDATSSFPLSQFQKLVPPTLPENVRIYENIRINTCLDLEELSAITVKLLQILSMNKINAQRGTEDAVTEPLKIILYINGLEVMFRNSQFKSSPQRSHELLRDTLLKLRVMGNDENENASIRTLLEFPKEQLLDYYLKKNNNTRTSSVRSKRRRIKNGDSLAEYIWKYYADSLFE | 
6 | binds |  | B1 | 
